Experimental data reported in publication doi:10.1101/2025.01.05.631328 (bioRxiv, 2025).
Values joined by “and” are separate entries in the source; they are usually repeats but may differ in a detail not shown here. Equal values may be shown once.

Target: the molecule itself
Assay: cross-linking

B1: MISO-Flag (human C3orf33, long isoform), in U2OS cells (natural protein, UniProt Q6P1S2 1-294, looked up)
chain: MAGQPAATGSPSADKDGMEPNVVARISQWADDHLRLVRNISTGMAIAGIMLLLRSIRLTSKFTSSSDIPVEFIRRNVKLRGRLRRITENGLEIEHIPITLPIIASLRKEPRGALLVKLAGVELAETGKAWLQKELKPSQLLWFQLLGKENSALFCYLLVSKGGYFSVNLNEEILRRGLGKTVLVKGLKYDSKIYWTVHRNLLKAELTALKKGEGIWKEDSEKESYLEKFKDSWREIWKKDSFLKTTGSDFSLKKESYYEKLKRTYEIWKDNMNNCSLILKFRELISRINFRRKG
  stoichiometry N: 2 and 3
